Measurements published in patent US20020086331.

Target: T1, Nit domain of C. elegans NitFhit, O76463
T1 chain: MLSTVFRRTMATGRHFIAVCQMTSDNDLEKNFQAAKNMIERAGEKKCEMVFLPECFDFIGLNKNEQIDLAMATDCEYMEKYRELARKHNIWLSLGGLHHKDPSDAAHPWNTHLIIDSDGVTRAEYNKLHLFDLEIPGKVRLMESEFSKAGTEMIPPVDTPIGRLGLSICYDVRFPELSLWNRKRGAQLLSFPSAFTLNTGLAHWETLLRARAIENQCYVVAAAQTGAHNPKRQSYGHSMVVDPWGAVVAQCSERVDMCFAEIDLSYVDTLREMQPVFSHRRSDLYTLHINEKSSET

B1: Fhit domain of C. elegans NitFhit (protein)
chain: GGLKFARFNIPADHIFYSTPHSFVFVNLKPVTDGHVLVSPKRVVPRLTDLTDAETADLFIVAKKVQAMLEKHHNVTSTTICVQDGKDAGQTVPHVHIHILPRRAGDFGDNEIYQKLASHDKEPERKPRSNEQMAEEAVVYRNLM
activity of worm NitFhit on ApppBODIPY relative to human Fhit (kcat/Km): worm NitFhit displays only 22% of the activity of human Fhit on ApppBODIPY | activity of worm NitFhit on GpppBODIPY relative to human Fhit (kcat/Km): it displays 109% of the activity of human Fhit on GpppBODIPY
